Measured values as given in the supplement of paper PMC10567573.

B1: KLHL12 (parent)
chain: REESLPNLLQYVRMPLLTPRYITD
B2: TRIM55 (parent)
chain: FQMEKIEHGYENMNHFTVNLNREE

Variants of: B1
Test: protein stability index of a GFP-peptide fusion (GPS, HEK-293T) (PSI 1-6); higher = more stable
Conditions: c terminus: a fixed tail appended
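Note: lentivirally expressed fusions sorted by FACS into six bins by GFP to DsRed ratio, PSI derived from sequencing read proportions per bin multiplied by bin number.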

| Variant | protein stability index |
| --- | --- |
| REESGPNLLQYVRMPLLTPRYITD [L5G] | 2.67 |
| REESNPNLLQYVRMPLLTPRYITD [L5N] | 2.52 |
| RYESLPNLLQYVRMPLLTPRYITD [E2Y] | 2.83 |
| RDESLPNLLQYVRMPLLTPRYITD [E2D] | 2.38 |
| RIESLPNLLQYVRMPLLTPRYITD [E2I] | 2.5 |
| RSESLPNLLQYVRMPLLTPRYITD [E2S] | 3.42 |
| RKESLPNLLQYVRMPLLTPRYITD [E2K] | 2.31 |
| RVESLPNLLQYVRMPLLTPRYITD [E2V] | 2.63 |
| RMESLPNLLQYVRMPLLTPRYITD [E2M] | 2.4 |
| RGESLPNLLQYVRMPLLTPRYITD [E2G] | 3.19 |
| RTESLPNLLQYVRMPLLTPRYITD [E2T] | 3.35 |
| RFESLPNLLQYVRMPLLTPRYITD [E2F] | 2.4 |
| RLESLPNLLQYVRMPLLTPRYITD [E2L] | 2.47 |
| RWESLPNLLQYVRMPLLTPRYITD [E2W] | 3.14 |
| RHESLPNLLQYVRMPLLTPRYITD [E2H] | 2.92 |
| RNESLPNLLQYVRMPLLTPRYITD [E2N] | 2.51 |
| RRESLPNLLQYVRMPLLTPRYITD [E2R] | 2.85 |
| RAESLPNLLQYVRMPLLTPRYITD [E2A] | 3.56 |
| RPESLPNLLQYVRMPLLTPRYITD [E2P] | 2.56 |
| RQESLPNLLQYVRMPLLTPRYITD [E2Q] | 2.53 |
| RCESLPNLLQYVRMPLLTPRYITD [E2C] | 3.52 |

Variants of: B2
Test: as above
Conditions: c terminus: a fixed tail appended

| Variant | protein stability index |
| --- | --- |
| FQMEKIEHGYENMNHFTVNLNRSE [E23S] | 2.67 |
| FQMEKIEHGYENMNHFTVNLNRRE [E23R] | 1.88 |
| FQMEKIEHGYENMNHFTVNLNRQE [E23Q] | 2.39 |
| FQMEKIEHGYENMNHFTVNLNRFE [E23F] | 1.88 |
| FQMEKIEHGYENMNHFTVNLNRLE [E23L] | 2.17 |
| FQMEKIEHGYENMNHFTVNLNRME [E23M] | 2.27 |
| FQMEKIEHGYENMNHFTVNLNRAE [E23A] | 1.77 |
| FQMEKIEHGYENMNHFTVNLNRGE [E23G] | 2.28 |
| FQMEKIEHGYENMNHFTVNLNRCE [E23C] | 1.67 |
| FQMEKIEHGYENMNHFTVNLNRTE [E23T] | 1.92 |
| FQMEKIEHGYENMNHFTVNLNRKE [E23K] | 2.26 |
| FQMEKIEHGYENMNHFTVNLNRHE [E23H] | 1.77 |
| FQMEKIEHGYENMNHFTVNLNRIE [E23I] | 1.64 |
| FQMEKIEHGYENMNHFTVNLNRNE [E23N] | 2.87 |
| FQMEKIEHGYENMNHFTVNLNRPE [E23P] | 2.29 |
| FQMEKIEHGYENMNHFTVNLNRDE [E23D] | 3.09 |
| FQMEKIEHGYENMNHFTVNLNRYE [E23Y] | 2.23 |
| FQMEKIEHGYENMNHFTVNLNRVE [E23V] | 2.62 |
| FQMEKIEHGYENMNHFTVNLWREE [N21W] | 1.13 |
| FQMEKIEHGYENMNHFTVNLIREE [N21I] | 2.59 |
| FQMEKIEHGYENMNHFTVNLHREE [N21H] | 2.15 |
| FQMEKIEHGYENMNHFTVNLQREE [N21Q] | 3.07 |
| FQMEKIEHGYENMNHFTVNLTREE [N21T] | 2.65 |
| FQMEKIEHGYENMNHFTVNLSREE [N21S] | 3.08 |
| FQMEKIEHGYENMNHFTVNLLREE [N21L] | 2.2 |

| Variant | protein stability index |
| --- | --- |
| FQMEKIEHGYENMNHFTVNLDREE [N21D] | 3.65 |
| FQMEKIEHGYENMNHFTVNLYREE [N21Y] | 2.5 |
| FQMEKIEHGYENMNHFTVNLKREE [N21K] | 2.87 |
| FQMEKIEHGYENMNHFTVNLMREE [N21M] | 2.1 |
| FQMEKIEHGYENMNHFTVNLVREE [N21V] | 2.4 |
| FQMEKIEHGYENMNHFTVNLFREE [N21F] | 2.07 |
| FQMEKIEHGYENMNHFTVNLPREE [N21P] | 2.94 |
| FQMEKIEHGYENMNHFTVNLRREE [N21R] | 2.51 |
| FQMEKIEHGYENMNHFTVNLGREE [N21G] | 2.86 |
| FQMEKIEHGYENMNHFTVNLEREE [N21E] | 3.54 |
| FQMEKIEHGYENMNHFTVNLNREL [E24L] | 3.02 |
| FQMEKIEHGYENMNHFTVNLNREG [E24G] | 1.97 |
| FQMEKIEHGYENMNHFTVNLNRED [E24D] | 2.77 |
| FQMEKIEHGYENMNHFTVNLNREI [E24I] | 1.98 |
| FQMEKIEHGYENMNHFTVNLNREM [E24M] | 1.57 |
| FQMEKIEHGYENMNHFTVNLNRET [E24T] | 2.12 |
| FQMEKIEHGYENMNHFTVNLNREA [E24A] | 2.27 |
| FQMEKIEHGYENMNHFTVNLNREV [E24V] | 2.49 |
| FQMEKIEHGYENMNHFTVNLNREP [E24P] | 2.37 |
| FQMEKIEHGYENMNHFTVNLNREN [E24N] | 2.33 |
| FQMEKIEHGYENMNHFTVNLNREH [E24H] | 2.43 |
| FQMEKIEHGYENMNHFTVNLNREY [E24Y] | 1.57 |
| FQMEKIEHGYENMNHFTVNLNREF [E24F] | 1.77 |
| FQMEKIEHGYENMNHFTVNLNREK [E24K] | 2.57 |
| FQMEKIEHGYENMNHFTVNLNREW [E24W] | 2.1 |

| Variant | protein stability index |
| --- | --- |
| FQMEKIEHGYENMNHFTVNLNRES [E24S] | 2.06 |
| FQMEKIEHGYENMNHFTVNLNRER [E24R] | 3.3 |
| FQMEKIEHGYENMNHFTVNLNREQ [E24Q] | 3 |
| FQMEKIEHGYENMNHFTVNLNREC [E24C] | 2.4 |
| FQMEKIEHGYENMNHFTVNLNEEE [R22E] | 3.77 |
| FQMEKIEHGYENMNHFTVNLNFEE [R22F] | 1.98 |
| FQMEKIEHGYENMNHFTVNLNKEE [R22K] | 3.75 |
| FQMEKIEHGYENMNHFTVNLNTEE [R22T] | 2.99 |
| FQMEKIEHGYENMNHFTVNLNPEE [R22P] | 2.99 |
| FQMEKIEHGYENMNHFTVNLNGEE [R22G] | 2.67 |
| FQMEKIEHGYENMNHFTVNLNYEE [R22Y] | 2.31 |
| FQMEKIEHGYENMNHFTVNLNCEE [R22C] | 3.09 |
| FQMEKIEHGYENMNHFTVNLNLEE [R22L] | 1.96 |
| FQMEKIEHGYENMNHFTVNLNSEE [R22S] | 3 |
| FQMEKIEHGYENMNHFTVNLNAEE [R22A] | 2.73 |
| FQMEKIEHGYENMNHFTVNLNQEE [R22Q] | 3.1 |
| FQMEKIEHGYENMNHFTVNLNDEE [R22D] | 3.32 |
| FQMEKIEHGYENMNHFTVNLNNEE [R22N] | 3.57 |
| FQMEKIEHGYENMNHFTVNLNWEE [R22W] | 2.59 |
| FQMEKIEHGYENMNHFTVNLNIEE [R22I] | 2.4 |
| FQMEKIEHGYENMNHFTVNLNMEE [R22M] | 2.44 |
| FQMEKIEHGYENMNHFTVNLNVEE [R22V] | 2.56 |
| FQMEKIEHGYENMNHFTVNLNHEE [R22H] | 2.64 |
